Assays:
[1] = biological target: human CaV2.2 pore-forming subunit α1B (CACNA1B), wild type (human) (UniProt Q00975)
[2] = biological target: human CaV2.2 α1B D185C (VSD I labelling variant) (human) (UniProt Q00975)
[3] = biological target: human CaV2.2 α1B N1266C (VSD III labelling variant) (human) (UniProt Q00975)
[4] = biological target: human CaV2.2 α1B N1580C (VSD IV labelling variant) (human) (UniProt Q00975)

- shift of V0.5 of CaV2.2 pore opening toward positive potentials by coexpressed Gβγ (tail currents, cut-open oocyte voltage clamp, 20 ms pulses) [1]: 14 mV
- shift of V0.5 of VSD I activation by coexpressed Gβγ (voltage-clamp fluorometry, ΔF-V) [2]: 21 mV
- shift of V0.5 of VSD III activation by coexpressed Gβγ (voltage-clamp fluorometry, ΔF-V); VSD III was not modulated by Gβγ [3]: -0.1 mV
- shift of V0.5 of VSD IV activation by coexpressed Gβγ (voltage-clamp fluorometry, ΔF-V); modest inhibition [4]: 13 mV
Substance: Gβγ complex of human Gβ1 and Gγ2 (from UniProt P62873 1-340; P59768 1-71)
